Results from patent US12083165B2, “Thymosin alpha 1 for use in treatment of cystic fibrosis” (SciClone Pharmaceuticals International (SG) PTE. LTD., priority 2015, dated 2024).

Key:
ΔF508 CFTR = ΔF508 CFTR (Homo sapiens, UniProt P13569, DEL508-508); experiment: Chloride permeability by SPQ fluorescence assay upon forskolin stimulation, HBE cells from CF patients; format: cell-based
Description: Cells. Cell Lines and Cell Culture—Human bronchial epithelial (HBE) cells, homozygous for the […] mutation and its isogenic wild-type were obtained from lung transplants (CF patients) or lung resections (non-CF patients) (kindly provided by L J Galietta within the Italian Cystic Fibrosis Foundation). Cells were maintained at 37° C. in a humidified incubator in an atmosphere containing 5% CO2, and the experiments were done 5 days after plating (21, 22). Stable lentiviral-based transduction of the parental CFBE41o− cells (ΔF508/ΔF508), originally immortalized and characterized by Dr. D. Gruenert and co-workers (32) with either WT-CFTR or ΔF508-CFTR, was performed by Tranzyme, Inc. (Birmingham, AL). […]
The activity of Tα1, either alone or in combination with ivacaftor, has been comparatively assessed with that of lumacaftor on CFBE41o− cells expressing ΔF508 CFTR and on HBE cells from CF patients. To this purpose, cells were treated with Tα1 (100 ng/ml), VX-770 (1 μM) or VX-809 (3 μM) alone or in combination for 24 hours and assessed for CFTR protein expression and function. […] In terms of ion channel activity, Tα1, either alone or in combination with ivacaftor, increased the chloride permeability of ΔF508 CFTR cells between 60 to 70% relative to control (considering WT control as 100% reference value)(B, assessed by a fluorescence assay upon stimulation with fosforkolin, Fsk). […]

[1] = test system: A. fumigatus-infected C57BL/6 and Cftr−/− mice; experiment: Lung inflammatory pathology and cell recruitment in Aspergillus-infected mice; format: in vivo; conditions: 200 μg/kg/i.p. daily for 6 days, 7 days post-infection
Description: Mice. Wild-type (WT) inbred C57BL6 mice, 8 to 12 weeks old, were purchased from Charles River Breeding Laboratories (Calco, Italy). Genetically engineered homozygote Cftr^−/− mice (33) were bred at the Cystic Fibrosis core animal facility at San Raffaele Hospital, Milan, Italy. Experiments were performed following protocols approved by the institutional animal committee and in accordance with European Economic Community Council Directive as well as institutional animal care and use guidelines.
Infection and treatments. Mice were anesthetized by i.p. injection of 2.5% avertin (Sigma Chemical Co, St. Louis, MO) before intranasal instillation of 2×10^7 A. fumigatus (Af293) resting conidia/20 μl saline. For histology, paraffin-embedded tissue were stained with Periodic acid-Schiff (PAS), and BAL fluid collection was done as described (21, 22). […]
Aspergillus-infected mice were treated with 200 μg/kg/i.p. daily of Tα1 for 6 consecutive days beginning the day of the infection. Mice were monitored for lung inflammatory pathology and cell recruitment at 7 days post-infection. […] Differential cell count of mononuclear (MNC), polymorphonuclear (PMN) cells and eosinophils (EOS) was determined upon May Grunwald Giemsa staining. […]

ΔF508 CFTR, sequence (P13569 with tags, fused parts or gaps DEL508-508): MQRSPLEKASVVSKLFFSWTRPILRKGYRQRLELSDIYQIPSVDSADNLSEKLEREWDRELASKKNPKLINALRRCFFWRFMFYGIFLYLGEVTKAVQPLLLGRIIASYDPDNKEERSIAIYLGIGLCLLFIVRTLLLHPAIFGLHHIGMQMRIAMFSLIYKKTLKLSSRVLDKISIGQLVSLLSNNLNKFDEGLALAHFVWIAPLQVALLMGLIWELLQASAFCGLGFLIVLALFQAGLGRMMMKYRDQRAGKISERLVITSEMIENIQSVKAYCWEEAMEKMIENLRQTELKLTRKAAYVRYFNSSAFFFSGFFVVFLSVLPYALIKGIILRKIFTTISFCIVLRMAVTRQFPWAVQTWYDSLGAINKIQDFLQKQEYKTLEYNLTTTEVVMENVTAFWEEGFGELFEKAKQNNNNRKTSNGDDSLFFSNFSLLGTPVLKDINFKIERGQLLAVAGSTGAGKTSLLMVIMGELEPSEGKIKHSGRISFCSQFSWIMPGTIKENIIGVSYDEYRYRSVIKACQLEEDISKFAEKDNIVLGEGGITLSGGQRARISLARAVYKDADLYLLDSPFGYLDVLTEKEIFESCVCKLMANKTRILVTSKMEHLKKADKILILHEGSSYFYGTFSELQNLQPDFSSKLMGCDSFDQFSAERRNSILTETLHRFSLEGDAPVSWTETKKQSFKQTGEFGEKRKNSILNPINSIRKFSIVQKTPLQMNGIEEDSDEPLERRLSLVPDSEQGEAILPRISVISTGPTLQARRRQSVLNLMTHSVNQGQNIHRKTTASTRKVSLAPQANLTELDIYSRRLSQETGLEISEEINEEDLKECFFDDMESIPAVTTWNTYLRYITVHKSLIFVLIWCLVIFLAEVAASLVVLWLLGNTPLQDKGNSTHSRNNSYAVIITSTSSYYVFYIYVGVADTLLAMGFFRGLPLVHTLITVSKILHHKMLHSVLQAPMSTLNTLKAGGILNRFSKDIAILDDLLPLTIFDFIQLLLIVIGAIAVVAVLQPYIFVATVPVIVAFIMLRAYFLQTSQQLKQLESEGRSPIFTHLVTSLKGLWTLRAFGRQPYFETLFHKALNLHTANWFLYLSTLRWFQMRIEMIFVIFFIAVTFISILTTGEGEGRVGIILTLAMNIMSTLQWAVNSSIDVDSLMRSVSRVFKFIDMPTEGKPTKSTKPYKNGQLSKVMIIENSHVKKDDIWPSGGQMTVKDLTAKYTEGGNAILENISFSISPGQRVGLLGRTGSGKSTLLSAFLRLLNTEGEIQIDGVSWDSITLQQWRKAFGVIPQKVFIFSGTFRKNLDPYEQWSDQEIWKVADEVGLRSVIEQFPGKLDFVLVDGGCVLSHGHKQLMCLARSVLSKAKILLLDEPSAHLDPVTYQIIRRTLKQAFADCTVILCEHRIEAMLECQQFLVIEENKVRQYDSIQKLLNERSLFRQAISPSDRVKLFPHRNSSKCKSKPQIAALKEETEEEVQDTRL

Substance: Ac-Ser-Asp-Ala-Ala-Val-Asp-Thr-Ser-Ser-Glu-Ile-Thr-Thr-Lys-Asp-Leu-Lys-Glu-Lys-Lys-Glu-Val-Val-Glu-Glu-Ala-Glu-Asn-O (Ac-SDAAVDTSSEITTKDLKEKKEVVEEAEN-OH; not fully specified; printed as Ac-Ser-Asp-Ala-Ala-Val-Asp-Thr-Ser-Ser-Glu-Ile-Thr-Thr-Lys-Asp-Leu-Lys-Glu-Lys-Lys-Glu-Val-Val-Glu-Glu-Ala-Glu-Asn-O; listed as Homo sapiens) [Tα1, naturally occurring polypeptide of 28 amino acid; supplied as purified sterile, lyophilized, acetylated polypeptide]
- chloride permeability of ΔF508 CFTR cells relative to control (WT control as 100%) (ΔF508 CFTR; 100 ng/ml Tα1 for 24 hours, forskolin stimulation): approximately 70%
- ion channel activity compared to lumacaftor (ΔF508 CFTR; 24 hours): similar
- local inflammatory cell recruitment and lung pathology (lung and BAL) ([1]; C57/BL6 mice): significantly decreased
- local inflammatory cell recruitment and lung pathology (lung and BAL) ([1]; Cftr−/− mice): significantly decreased
